Results taken from PMC8219681, “Inhibition of MRN activity by a telomere protein motif” (Nature Communications, 2021).
Where a chain is given by its changes, count along the chain named. In names and notes the source's numbering stands.

B1: MBP-Rif2 (S. cerevisiae Rif2, wild type) (natural protein, UniProt Q06208 1-395, looked up)
chain: MEHVDSDFAPIRRSKKVVDSDKIVKAISDDLEQKNFTVLRKLNLVPIKKSVSSPKVCKPSPVKERVDHVFYQKFKSMALQELGTNYLSISYVPSLSKFLSKNLRSMKNCIVFFDKVEHIHQYAGIDRAVSETLSLVDINVVIIEMNDYLMKEGIQSSKSKECIESMGQASYSGQLDFEASEKPSNHTSDLMMMVMRKINNDESIDHIVYFKFEQLDKLSTSTIIEPSKLTEFINVLSVLEKSNNIAFKVLIYSNNVSISSLLSTSLKKKLNTKYTVFEMPILTCAQEQEYLKKMIKFTFDSGSKLLQSYNSLVTCQLNNKESNLAIFFEFLKVFPHPFTYLFNAYTEIIVQSRTFDELLDKIRNRLTIKNYPHSAYNFKKNQRLPLKLTRKVHDR
notes: Rif2, Saccharomyces cerevisiae, full length, expressed from the vector pFB-MBP-Rif2-his; MBP was cleaved with PreScission protease only after elution from the resin; N-terminal place of MBP is read from the construct's name MBP-Rif2-his; also called ScRif2; not shown: MBP, N-terminal, kept
B2: MBP-Rif2-min (S. cerevisiae Rif2 F8E P10N) (natural protein, UniProt Q06208 1-395, looked up)
chain: B1 chain with F8E, P10N
notes: Rif2, Saccharomyces cerevisiae, full length, F8E P10N, expressed from the vector pFB-MBP-Rif2-min-his; MBP was cleaved with PreScission protease only after elution from the resin; N-terminal place of MBP is read from the construct's name; also called mutant Rif2; not shown: MBP, N-terminal, kept

What was measured:
[1] = target: T1, Rad50S (S. cerevisiae Rad50-K81I, FLAG-tagged at the C terminus) (S. cerevisiae, UniProt P12753 1-1312, K81I); experiment: pull-down; MBP-Rif2 or MBP-Rif2-min immobilised on amylose resin, washed with 1 M NaCl buffer then 150 mM NaCl; 750 ng Rad50 or Rad50-K81I added for 1 h at 4 °C in wash buffer with 150 mM NaCl; Western blot with anti-Rad50; conditions: both partners purified
T1 construct: Rad50, Saccharomyces cerevisiae, K81I
T1 sequence (looked up): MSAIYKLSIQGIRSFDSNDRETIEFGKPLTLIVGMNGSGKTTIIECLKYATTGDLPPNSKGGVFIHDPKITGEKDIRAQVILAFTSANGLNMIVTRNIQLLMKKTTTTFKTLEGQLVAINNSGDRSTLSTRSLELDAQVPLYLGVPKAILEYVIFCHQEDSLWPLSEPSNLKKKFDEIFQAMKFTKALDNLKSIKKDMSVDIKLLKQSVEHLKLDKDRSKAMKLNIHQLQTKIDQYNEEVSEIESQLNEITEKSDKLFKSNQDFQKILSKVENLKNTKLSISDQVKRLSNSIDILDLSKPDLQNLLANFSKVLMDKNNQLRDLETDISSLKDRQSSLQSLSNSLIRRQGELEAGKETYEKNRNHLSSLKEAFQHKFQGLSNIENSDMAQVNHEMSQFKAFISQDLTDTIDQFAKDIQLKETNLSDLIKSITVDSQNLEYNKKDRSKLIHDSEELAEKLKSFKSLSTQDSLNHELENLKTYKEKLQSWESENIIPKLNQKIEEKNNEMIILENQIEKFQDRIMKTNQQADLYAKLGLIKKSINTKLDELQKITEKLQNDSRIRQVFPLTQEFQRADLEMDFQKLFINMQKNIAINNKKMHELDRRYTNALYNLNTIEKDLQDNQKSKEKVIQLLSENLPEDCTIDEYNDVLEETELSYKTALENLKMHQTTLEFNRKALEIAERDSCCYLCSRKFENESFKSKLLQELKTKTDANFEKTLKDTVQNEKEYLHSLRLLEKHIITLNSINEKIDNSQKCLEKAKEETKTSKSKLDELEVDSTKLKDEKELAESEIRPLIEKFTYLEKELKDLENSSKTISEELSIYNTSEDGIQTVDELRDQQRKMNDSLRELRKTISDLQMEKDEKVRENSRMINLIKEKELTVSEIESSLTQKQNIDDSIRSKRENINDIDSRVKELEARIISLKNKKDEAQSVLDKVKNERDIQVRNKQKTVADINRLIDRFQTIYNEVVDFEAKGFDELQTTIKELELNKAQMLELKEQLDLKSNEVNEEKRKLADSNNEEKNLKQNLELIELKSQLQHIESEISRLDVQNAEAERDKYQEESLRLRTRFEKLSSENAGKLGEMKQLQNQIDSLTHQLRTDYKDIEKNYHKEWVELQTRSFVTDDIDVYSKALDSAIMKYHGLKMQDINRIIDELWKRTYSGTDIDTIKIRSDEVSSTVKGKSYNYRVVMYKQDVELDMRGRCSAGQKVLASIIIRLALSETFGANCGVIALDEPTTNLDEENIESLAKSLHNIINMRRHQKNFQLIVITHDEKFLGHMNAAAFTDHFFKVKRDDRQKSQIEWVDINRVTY

[2] = target: T2, Mre11 (S. cerevisiae, his-tagged at the C terminus) (S. cerevisiae, UniProt P32829 1-692); experiment: pull-down; MBP-Rif2 or MBP-Rif2-min (~5 ug, from Sf9 lysate) immobilised on amylose resin and washed; 1 ug Mre11, 500 ng Rad50 or 1 ug Xrs2 added for 1 h in 50 mM Tris-HCl pH 7.5, 200 mM NaCl, 0.2% NP40, 2 mM EDTA; eluted with 20 mM maltose; Western blot; conditions: both partners purified
T2 construct: Mre11, Saccharomyces cerevisiae; also called Mre11-his; not shown: His tag, C-terminal, kept
T2 sequence (looked up): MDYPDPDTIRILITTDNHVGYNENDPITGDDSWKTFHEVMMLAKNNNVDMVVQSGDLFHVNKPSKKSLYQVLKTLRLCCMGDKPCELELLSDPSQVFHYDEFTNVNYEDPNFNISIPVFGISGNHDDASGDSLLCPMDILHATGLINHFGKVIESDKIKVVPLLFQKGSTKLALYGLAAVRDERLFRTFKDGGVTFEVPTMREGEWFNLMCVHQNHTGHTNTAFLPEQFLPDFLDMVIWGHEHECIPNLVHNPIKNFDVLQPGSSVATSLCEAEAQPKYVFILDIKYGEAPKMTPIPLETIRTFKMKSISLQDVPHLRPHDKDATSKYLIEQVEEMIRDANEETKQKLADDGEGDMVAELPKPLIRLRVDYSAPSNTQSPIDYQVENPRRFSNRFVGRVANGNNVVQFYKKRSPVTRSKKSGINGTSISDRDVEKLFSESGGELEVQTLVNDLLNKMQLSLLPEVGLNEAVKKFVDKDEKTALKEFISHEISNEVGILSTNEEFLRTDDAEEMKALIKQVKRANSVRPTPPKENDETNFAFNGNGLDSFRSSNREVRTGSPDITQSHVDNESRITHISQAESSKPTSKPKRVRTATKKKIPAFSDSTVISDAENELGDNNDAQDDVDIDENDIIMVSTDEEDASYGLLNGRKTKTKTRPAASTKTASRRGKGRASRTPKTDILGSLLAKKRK

Binder	binding result [1]	binding result [2]
B1	binds	binds
B2	binds	binds
